Molecular target: T1, Cy3-conjugated IκBα (UniProt P25963 1-317, limits assumed, Cy3 label (monofunctional reactive dye; site not stated))
T1 construct: Used in solution at 0.1 ug/ml; also called Cy3-IκBα
T1 sequence (looked up): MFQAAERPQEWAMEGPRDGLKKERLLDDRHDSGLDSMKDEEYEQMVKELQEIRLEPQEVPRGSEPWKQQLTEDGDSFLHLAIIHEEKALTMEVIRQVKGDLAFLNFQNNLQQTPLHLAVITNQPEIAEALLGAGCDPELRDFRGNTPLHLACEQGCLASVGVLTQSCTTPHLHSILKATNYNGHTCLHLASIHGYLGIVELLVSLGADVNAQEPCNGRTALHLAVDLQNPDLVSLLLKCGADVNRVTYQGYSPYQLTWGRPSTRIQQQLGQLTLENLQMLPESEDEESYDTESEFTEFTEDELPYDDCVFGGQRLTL
Test: protein microarray on aldehyde glass slide, fluorescent probe in solution (FIG. 1B)

B1: GST-FRB (other)
chain: ELIRVAILWHEMWHEGLEEASRLYFGERNVKGMFEVLEPLHAMMERGPQTLKETSFNQAYGRDLMEAQEWCRKYMKSGNVKDLTQAWDLYYHVFRRISKQ
notes: domain: FRB domain of FRAP; Produced recombinantly in E. coli; The text calls the spotted protein both 'GST-FRB' and 'FRB'; also called FRB domain of FRAP; not shown: GST (glutathione S-transferase) fusion partner
B1: no binding (tested: 0.1 µg/ml).

B2: Protein G (other, UniProt P19909 303-497, looked up)
chain: TYKLILNGKTLKGETTTEAVDAATAEKVFKQYANDNGVDGEWTYDDATKTFTVTEKPEVIDASELTPAVTTYKLVINGKTLKGETTTEAVDAATAEKVFKQYANDNGVDGEWTYDDATKTFTVTEKPEVIDASELTPAVTTYKLVINGKTLKGETTTKAVDAETAEKAFKQYANDNGVDGVWTYDDATKTFTVTE
notes: Spotted on aldehyde (SMA) glass slides at 100 ug/ml; The commercial product may be a truncated recombinant form
B2: no binding (tested: 0.1 µg/ml).
